Laboratory results published in patent publication US7977317B2, “Compositions and methods for modulating blood-brain barrier transport” (Raptor Pharmaceutical Inc., priority 2001, dated 2011).

Columns and labels:
LRP = LRP (Homo sapiens, UniProt Q07954); settings: Tables 1-3; cited from earlier work
Megalin = Megalin (Homo sapiens, UniProt P98164); settings: Tables 1-3; cited from earlier work
LDL-R = LDL-R (Homo sapiens, UniProt P01130); settings: Tables 1-3; cited from earlier work
VLDL-R = VLDL-R (Homo sapiens, UniProt P98155); settings: Tables 1-3; cited from earlier work
ER-2 = molecular target: T1, ER-2 (Homo sapiens, UniProt Q14114); settings: Tables 1-3; cited from earlier work
T1 sequence (Q14114 33-963): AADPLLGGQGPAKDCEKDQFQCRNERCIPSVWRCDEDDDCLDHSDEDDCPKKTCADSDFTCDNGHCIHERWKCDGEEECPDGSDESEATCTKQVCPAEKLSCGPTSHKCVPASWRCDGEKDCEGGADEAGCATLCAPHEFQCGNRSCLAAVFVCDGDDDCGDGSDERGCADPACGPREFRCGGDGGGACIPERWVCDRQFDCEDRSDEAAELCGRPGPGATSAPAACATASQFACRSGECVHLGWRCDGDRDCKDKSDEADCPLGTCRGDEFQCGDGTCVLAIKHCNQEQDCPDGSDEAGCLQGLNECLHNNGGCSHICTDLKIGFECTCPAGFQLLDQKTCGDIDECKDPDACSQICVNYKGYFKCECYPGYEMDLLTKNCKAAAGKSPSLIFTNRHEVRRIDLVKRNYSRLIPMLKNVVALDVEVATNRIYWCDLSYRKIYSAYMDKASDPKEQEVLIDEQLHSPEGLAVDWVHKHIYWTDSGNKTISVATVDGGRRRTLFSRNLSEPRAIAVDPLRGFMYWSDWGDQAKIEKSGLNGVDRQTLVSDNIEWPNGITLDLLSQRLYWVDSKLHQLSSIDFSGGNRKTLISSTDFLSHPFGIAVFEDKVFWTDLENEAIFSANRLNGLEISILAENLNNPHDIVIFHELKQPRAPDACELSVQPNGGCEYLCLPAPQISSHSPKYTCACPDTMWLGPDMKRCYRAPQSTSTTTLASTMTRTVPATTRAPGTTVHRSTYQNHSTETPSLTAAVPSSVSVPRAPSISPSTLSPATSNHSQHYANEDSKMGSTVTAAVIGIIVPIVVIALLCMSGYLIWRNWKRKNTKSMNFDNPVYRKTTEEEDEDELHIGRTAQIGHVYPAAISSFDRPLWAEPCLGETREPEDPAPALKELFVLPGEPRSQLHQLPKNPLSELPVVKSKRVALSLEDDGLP

LR11 = LR11 (Homo sapiens, UniProt Q92673); settings: Tables 1-3; cited from earlier work
human brain capillaries = experiment: Accumulation/uptake of [125I]-p97 in isolated human brain capillaries; type: binding
Protocol: FIG. 5. Accumulation of p97 in human brain capillaries. Accumulation of [^125I]-p97 was measured at 37° C. for 1 h in isolated human brain capillaries (100 μg/assay). The incubation medium contained [^125I]-p97 and a final concentration of 100 nM p97 in Ringer/Hepes solution. The accumulation of [^125I]-p97 was performed in the presence or absence of 5 μm cold-p97, holo-transferrin or lactoferrin. […] The suspension was filtered under vacuum through a […] pore size Millipore filter. The filter was rinsed with 8 ml of stop solution, and the radioactivity was counted. Nonspecific binding of the radioactivity to the capillaries was determined by the addition of the ice-cold stop solution to the capillaries before adding the incubation medium. This value was subtracted from accumulation values obtained following an 1 h incubation. The results were expressed as ng of [^125I]-p97 accumulated per μg of brain capillaries.
FIG. 16 illustrates the identification of a p97 receptor according to ligand specificity. FIG. 16a, Uptake of [^125I]-p97 into human brain capillaries. The uptake of [^125I]-p97 at 100 nM (control) into isolated human brain capillaries was measured for 1 h at 37° C. in the presence of a 50-fold molar excess of unlabelled p97, human holo-transferrin or human lactoferrin. (*[…] Student's t-test (n=5); FIG. 16b, Effect of RAP on [^125I]-p97 transcytosis across BBCEC monolayers. Apical-to-basal transport of [^125I]-p97 was measured in the presence (closed circles) or absence (open circles) of RAP (25 μg/ml) (n=5); FIG. 16c, Inhibition of bovine [^125I]-lactoferrin transport by p97. Transcytosis of bovine [^125I]-lactoferrin (50 nM) was measured in the presence (closed circles) or absence (open circles) of unlabelled p97 (5 μM) at 37° C. (n=3).
A. Isolation of human brain capillaries. Capillaries of the blood-brain barrier were isolated from human brain cortex by a procedure previously described by Dallaire, et al., J. Biol. Chem., 267:22323-22327 (1992) with slight modifications. Human brains were obtained post-mortem. The brain was cleared of meninges, superficial large blood vessels and choroid plexus. All the following procedures were performed at 4° C. The cerebral cortex was homogenized in 5 volumes of Ringer/Hepes solution with a Polytron (Brinkman Instruments, Rexdale, Ontario, Canada). The homogenate was mixed with an equal volume of Dextran T-70 (27 g in 100 ml of Ringer/Hepes). The suspension was centrifuged at 25,000 g for 10 min. The pellet was resuspended in 30 ml of Ringer/Hepes and passed through a 250 μm nylon mesh screen. […]
B. p97 accumulation in human brain capillaries. […] Accumulation of [^125I]-p97 was measured at 37° C. for 1 h in isolated human brain capillaries (100 μg/assay). […]

BBCEC monolayers = experiment: Transcytosis across BBCEC monolayers (in vitro BBB model); type: cell-based, bovine
Excerpt: FIG. 10 assesses the ability of several agents to interfere with p97 transyctosis. FIG. 10a, transcytosis of I125-P97 was compared in the presence of cold p97 (5 micromolar), Lf (5 micromolar), and Tf (5 micromolar). […] FIG. 10c, RAP, a known poly-peptide inhibitor of the LDL-Receptor family was applied to the cells (25 micrograms/ml).
FIG. 11 examines the accumulation and transcytosis of p97. FIG. 11a, of [^125I]-p97, [^125I]-BSA and [^125I]-holo-transferrin one hour after i.v. injection. The radioactivity in brain was compared between the three compounds. (n=3); FIG. 11b, Accumulation of p97 and transferrin into the mouse brain parenchyma. In situ brain perfusion was performed with human [^125I]-p97 or [^125I]-holo-transferrin at a final concentration of 10 nM via a catheter inserted in the right common carotid artery. The volume of distribution (VD) of [^125I]-proteins were obtained in the whole brain homogenate (white bars), in brain capillaries (solid bars) and in brain parenchyma (hatched bars) after isolation of the right hemisphere and capillary depletion. Results were obtained for p97 (n=10) and for holo-transferrin (n=6); FIG. 11c, Transcytosis of p97 across BBCEC monolayers. Transcytosis experiments were performed 37° C. (open circles) and 4° C. (closed circles) with BBCEC monolayers. [^125I]-p97 (1 mg/ml) was added to the upper side of the cell-covered filter. One representative experiment is shown (n=4); FIG. 11d, Preferential transport of p97 across the BBCEC monolayers. Apical-to-basal and basal-to-apical transport of [^125I]-p97 (25 nM) was measured for 2 hrs at 37° C. At the end of the experiment, [^125I]-p97 was assessed in the lower or upper chambers of each well by TCA precipitation (n=4).
FIG. 13 illustrates the transcytosis and accumulation of p97 and transferrin in BBCEC monolayers. FIG. 13a, Transcytosis experiments were performed at 37° C. (solid bars) or 4° C. (white bars). [^125I]-p97 or bovine [^125I]-holo-transferrin (1 mg/ml) was added to the upper side of the cell-covered filter. At the end of the experiment, radiolabelled proteins were measured in the lower chamber of each well by TCA precipitation (n=4). Controls were also performed at 37° C. with denatured [^125I]-p97 or bovine [^125I]-holo-transferrin boiled for 30 min (grey bars) (n=2); FIG. 13b, Biospecific interaction analysis was performed with native or boiled p97 for the indicated times. MAb L235 (5 μg) was immobilized on a sensor chip (SM5) using standard procedures incorporating NHS, EDC and ethanolamine. Native and boiled p97 (5 to 30 min) diluted at 1 mg/ml in Ringer/Hepes was cooled and injected into the BIAcore. The surface plasmon resonance response obtained for native p97 and boiled p97 was plotted (in relative units (RU)) as a function of time; FIG. 13c, The accumulation of both proteins into BBEC cells were also measured. Briefly, after incubation at 37° C. (solid bars) or 4° C. (white bars) with either [^125I]-protein, cells were washed four times with cold PBS. Accumulation of both denatured proteins (grey bars) was also measured at 37° C. Filters were then removed, and the radioactivity associated with the cells was quantified (n=3).
FIG. 14 illustrates the stability of p97 and integrity of the BBCEC monolayers following p97 transcytosis. FIG. 14a, Transcytosis experiments were performed at 37° C. and 4° C. by adding p97 (1 mg/ml) to the upper compartment. At the end of the experiment, 50 μl from each lower chamber was used for SDS-polyacrylamide gel electrophoresis. After electrophoresis, the gels were stained with Coomassie Blue. A standard curve was also made with known amounts of recombinant p97 (0-2 μg); FIG. 14b. The gels were dried and scanned to quantify the amount of intact p97 that crossed the BBCEC monolayers at 37° C. and 4° C. (n=3); FIG. 14c, Effect of p97 on sucrose permeability of BBCE cell monolayers co-cultured with astrocytes. […]

Chain of LRP (Q07954 20-4544): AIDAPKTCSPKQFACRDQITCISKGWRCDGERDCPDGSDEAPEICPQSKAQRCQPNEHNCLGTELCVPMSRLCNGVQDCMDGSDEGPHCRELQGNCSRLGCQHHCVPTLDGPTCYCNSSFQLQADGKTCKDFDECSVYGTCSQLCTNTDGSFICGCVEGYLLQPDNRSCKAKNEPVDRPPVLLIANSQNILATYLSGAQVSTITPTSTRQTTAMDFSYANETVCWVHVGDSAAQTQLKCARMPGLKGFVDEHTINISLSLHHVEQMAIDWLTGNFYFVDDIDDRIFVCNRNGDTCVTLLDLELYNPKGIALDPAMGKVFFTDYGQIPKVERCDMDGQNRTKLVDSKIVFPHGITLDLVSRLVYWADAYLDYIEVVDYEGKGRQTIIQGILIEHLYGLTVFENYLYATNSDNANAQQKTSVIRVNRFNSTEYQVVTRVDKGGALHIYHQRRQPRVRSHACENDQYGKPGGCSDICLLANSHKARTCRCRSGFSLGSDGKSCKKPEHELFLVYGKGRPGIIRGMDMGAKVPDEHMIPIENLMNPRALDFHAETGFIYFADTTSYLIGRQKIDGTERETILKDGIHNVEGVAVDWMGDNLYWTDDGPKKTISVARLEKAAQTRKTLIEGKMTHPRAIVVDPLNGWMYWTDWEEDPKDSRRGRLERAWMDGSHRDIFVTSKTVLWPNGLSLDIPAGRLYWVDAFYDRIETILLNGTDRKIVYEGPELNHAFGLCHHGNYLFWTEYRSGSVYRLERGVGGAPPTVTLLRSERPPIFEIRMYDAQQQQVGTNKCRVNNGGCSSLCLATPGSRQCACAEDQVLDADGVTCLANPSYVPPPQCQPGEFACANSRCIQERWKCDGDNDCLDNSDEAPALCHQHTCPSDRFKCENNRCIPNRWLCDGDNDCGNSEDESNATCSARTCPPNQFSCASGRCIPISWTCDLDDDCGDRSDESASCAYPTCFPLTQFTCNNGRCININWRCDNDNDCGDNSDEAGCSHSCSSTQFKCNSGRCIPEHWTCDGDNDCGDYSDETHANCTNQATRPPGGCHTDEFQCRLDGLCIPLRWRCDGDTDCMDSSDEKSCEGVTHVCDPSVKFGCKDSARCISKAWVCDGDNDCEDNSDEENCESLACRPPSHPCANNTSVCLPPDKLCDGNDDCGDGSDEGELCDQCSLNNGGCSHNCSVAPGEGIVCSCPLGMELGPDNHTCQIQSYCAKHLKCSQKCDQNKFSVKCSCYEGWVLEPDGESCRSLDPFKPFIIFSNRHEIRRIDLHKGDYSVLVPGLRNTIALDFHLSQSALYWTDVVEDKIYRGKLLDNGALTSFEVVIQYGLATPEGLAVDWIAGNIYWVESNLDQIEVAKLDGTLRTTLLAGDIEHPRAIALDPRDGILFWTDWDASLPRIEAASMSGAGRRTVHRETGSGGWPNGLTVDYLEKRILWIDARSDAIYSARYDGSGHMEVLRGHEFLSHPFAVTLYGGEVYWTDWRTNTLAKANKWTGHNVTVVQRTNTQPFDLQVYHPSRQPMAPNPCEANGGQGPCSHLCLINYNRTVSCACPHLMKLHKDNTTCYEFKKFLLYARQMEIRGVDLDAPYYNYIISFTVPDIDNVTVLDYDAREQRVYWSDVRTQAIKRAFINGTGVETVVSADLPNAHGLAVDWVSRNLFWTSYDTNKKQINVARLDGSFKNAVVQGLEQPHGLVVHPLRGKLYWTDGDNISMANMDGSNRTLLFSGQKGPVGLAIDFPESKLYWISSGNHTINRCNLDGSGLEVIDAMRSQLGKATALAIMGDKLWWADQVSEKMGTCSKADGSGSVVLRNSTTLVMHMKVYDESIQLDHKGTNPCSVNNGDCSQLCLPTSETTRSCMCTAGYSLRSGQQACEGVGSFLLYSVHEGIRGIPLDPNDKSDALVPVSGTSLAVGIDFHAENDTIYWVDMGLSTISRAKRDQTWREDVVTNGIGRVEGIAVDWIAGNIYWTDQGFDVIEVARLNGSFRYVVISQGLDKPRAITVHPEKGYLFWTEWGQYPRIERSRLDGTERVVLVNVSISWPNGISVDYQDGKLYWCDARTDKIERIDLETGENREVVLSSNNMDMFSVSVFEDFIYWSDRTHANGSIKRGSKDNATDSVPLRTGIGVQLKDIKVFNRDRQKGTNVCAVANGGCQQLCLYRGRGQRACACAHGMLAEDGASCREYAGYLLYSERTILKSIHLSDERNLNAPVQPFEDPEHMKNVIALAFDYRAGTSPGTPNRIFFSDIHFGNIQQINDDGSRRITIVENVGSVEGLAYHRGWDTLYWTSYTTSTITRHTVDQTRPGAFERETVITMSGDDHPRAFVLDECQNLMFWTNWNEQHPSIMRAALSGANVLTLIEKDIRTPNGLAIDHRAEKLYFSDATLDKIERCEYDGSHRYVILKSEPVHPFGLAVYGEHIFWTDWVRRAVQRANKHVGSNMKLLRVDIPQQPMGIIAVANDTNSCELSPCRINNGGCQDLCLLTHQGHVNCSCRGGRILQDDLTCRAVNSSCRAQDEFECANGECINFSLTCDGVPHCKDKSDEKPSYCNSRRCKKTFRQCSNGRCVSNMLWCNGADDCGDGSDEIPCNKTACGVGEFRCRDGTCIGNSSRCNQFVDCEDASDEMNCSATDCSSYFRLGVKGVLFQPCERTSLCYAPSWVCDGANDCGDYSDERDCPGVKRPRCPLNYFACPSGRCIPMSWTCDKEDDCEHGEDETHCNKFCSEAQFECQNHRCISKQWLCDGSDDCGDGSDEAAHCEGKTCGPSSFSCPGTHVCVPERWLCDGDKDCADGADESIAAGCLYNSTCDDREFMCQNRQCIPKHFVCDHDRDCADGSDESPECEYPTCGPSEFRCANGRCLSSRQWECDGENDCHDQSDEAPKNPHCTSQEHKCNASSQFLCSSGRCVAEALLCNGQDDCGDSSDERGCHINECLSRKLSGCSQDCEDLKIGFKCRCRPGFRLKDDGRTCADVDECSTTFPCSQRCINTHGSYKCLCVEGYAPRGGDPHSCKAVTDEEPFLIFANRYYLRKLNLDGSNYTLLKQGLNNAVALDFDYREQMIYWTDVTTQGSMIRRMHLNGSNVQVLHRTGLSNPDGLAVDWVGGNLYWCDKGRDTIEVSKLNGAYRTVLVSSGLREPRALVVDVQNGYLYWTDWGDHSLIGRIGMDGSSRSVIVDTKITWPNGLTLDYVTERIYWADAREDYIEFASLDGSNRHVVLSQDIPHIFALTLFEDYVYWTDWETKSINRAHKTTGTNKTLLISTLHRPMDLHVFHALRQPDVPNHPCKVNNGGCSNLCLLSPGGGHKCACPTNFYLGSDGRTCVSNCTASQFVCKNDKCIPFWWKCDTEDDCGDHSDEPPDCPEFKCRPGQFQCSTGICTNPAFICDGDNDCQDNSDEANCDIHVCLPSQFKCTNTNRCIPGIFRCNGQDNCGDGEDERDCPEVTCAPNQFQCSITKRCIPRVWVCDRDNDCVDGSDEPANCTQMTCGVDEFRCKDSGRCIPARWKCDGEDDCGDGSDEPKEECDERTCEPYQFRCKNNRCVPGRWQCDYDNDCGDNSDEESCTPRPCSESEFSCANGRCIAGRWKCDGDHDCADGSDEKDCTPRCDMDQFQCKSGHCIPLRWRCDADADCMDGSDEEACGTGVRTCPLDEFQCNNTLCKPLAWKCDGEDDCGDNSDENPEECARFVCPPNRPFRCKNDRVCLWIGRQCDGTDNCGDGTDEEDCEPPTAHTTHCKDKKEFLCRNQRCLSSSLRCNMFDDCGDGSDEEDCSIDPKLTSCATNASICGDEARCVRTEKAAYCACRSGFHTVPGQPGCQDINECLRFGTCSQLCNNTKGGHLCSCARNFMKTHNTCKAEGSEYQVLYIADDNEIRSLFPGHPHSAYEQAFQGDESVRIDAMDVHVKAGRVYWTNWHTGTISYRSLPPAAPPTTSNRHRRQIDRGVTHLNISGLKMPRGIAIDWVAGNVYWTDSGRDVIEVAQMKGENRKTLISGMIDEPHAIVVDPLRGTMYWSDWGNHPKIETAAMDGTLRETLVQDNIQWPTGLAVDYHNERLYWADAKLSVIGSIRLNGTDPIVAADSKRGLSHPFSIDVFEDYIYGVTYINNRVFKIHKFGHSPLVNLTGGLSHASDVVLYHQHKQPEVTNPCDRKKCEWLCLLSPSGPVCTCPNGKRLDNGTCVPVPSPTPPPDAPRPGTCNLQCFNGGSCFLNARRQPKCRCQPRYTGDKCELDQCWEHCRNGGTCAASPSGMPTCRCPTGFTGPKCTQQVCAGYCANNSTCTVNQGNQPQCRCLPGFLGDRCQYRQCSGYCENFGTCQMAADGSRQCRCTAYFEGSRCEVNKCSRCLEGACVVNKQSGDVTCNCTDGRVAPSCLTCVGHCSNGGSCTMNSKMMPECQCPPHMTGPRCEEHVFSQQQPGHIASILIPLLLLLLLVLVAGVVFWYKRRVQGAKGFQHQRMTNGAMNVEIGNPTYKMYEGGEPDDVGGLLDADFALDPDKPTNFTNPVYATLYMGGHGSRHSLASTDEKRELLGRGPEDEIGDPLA

Substance | Binding to LRP (LRP) | Binding to Megalin (Megalin) | further results
Activated α2-macroglobulin: activated α2-macroglobulin | Yes | No | –
Albumin | – | Yes | –
ApoB100: apolipoprotein B 100 | – | Yes | Binding to LDL-R (LDL-R): Yes
ApoE: Apolipoprotein E | Yes | Yes | Binding to VLDL-R (VLDL-R): Yes; Binding to ER-2 (ER-2): Yes; Binding to LR11 (LR11): Yes
ApoJ/clusterin: ApoJ/clusterin | – | Yes | –
Gentamycin [reference compound] | Yes | Yes | –
Plasminogen: plasminogen | – | Yes | –
Polymixin B [reference compound] | Yes | Yes | –
Pseudomonas Exotoxin A | Yes | No | –
Thrombospondin-1: thrombospondin-1 | Yes | – | Binding to VLDL-R (VLDL-R): Yes
Thyroglobulin: thyroglobulin | – | Yes | Binding to ER-2 (ER-2): Yes; Binding to LR11 (LR11): Yes
Tissue factor inhibitor: tissue factor inhibitor | Yes | – | –
human holo-transferrin: human holo-transferrin | – | – | Inhibition of the uptake of [125I]-p97 into isolated human brain capillaries (human brain capillaries; 50-fold molar excess, [125I]-p97 100 nM, 1 h at 37° C. (FIG. 16a)): had no effect; Reduction of apical-to-basal transport of [125I]-p97 (BBCEC monolayers; 200-fold molar excess of competitor, [125I]-p97 25 nM (FIG. 15a, 15b)): had no impact
tPA: tissue type plasminogen activator | Yes | Yes | –
α1-chymotrypsin/cathepsin G: protease/inhibitor complex | No | Yes | –
β-amyloid peptide 1-40: β-amyloid peptide 1-40 [reference compound] | – | – | Competition with p97 for receptor binding in human brain capillaries, repeat experiment (human brain capillaries; performed identically to FIG. 5 (FIG. 6)): competes with p97 for receptor binding; Effect on transcytosis of 125I-p97 (BBCEC monolayers; competitor 5 micromolar (FIG. 10a, 10b)): failed to slow or reduce
βAPP: β-amyloid precursor protein | Yes | – | Binding to VLDL-R (VLDL-R): Yes
